T1: GFP-Rad55-Rad57 complex (His6-GFP-Rad55 and FLAG-Rad57) (S. cerevisiae, UniProt P38953 1-406; P25301 1-460)
T1 sequence (looked up) 1: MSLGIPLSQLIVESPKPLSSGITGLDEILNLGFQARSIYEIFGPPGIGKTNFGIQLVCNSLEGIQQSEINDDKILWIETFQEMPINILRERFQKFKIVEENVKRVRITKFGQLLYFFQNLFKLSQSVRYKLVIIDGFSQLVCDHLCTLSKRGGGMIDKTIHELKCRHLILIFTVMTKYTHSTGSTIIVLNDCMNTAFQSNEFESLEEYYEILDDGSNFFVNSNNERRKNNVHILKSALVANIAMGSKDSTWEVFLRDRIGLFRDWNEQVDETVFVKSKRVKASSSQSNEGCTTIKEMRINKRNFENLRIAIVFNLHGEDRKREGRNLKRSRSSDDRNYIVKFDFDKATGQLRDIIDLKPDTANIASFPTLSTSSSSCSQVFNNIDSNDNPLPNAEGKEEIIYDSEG
T1 sequence (looked up) 2: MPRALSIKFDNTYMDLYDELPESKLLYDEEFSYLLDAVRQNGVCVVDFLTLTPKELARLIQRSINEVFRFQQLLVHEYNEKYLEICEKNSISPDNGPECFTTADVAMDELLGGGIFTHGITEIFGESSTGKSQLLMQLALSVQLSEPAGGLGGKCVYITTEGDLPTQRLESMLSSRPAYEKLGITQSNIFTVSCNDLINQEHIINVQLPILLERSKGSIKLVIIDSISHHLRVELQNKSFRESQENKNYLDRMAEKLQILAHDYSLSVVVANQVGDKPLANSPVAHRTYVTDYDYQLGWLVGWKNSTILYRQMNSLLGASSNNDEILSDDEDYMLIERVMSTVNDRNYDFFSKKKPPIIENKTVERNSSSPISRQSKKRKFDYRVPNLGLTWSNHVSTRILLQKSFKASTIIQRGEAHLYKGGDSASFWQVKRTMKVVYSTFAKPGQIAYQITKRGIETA

B1: Rad51 (natural protein, S. cerevisiae, UniProt P25454 1-400, looked up)
chain: MSQVQEQHISESQLQYGNGSLMSTVPADLSQSVVDGNGNGSSEDIEATNGSGDGGGLQEQAEAQGEMEDEAYDEAALGSFVPIEKLQVNGITMADVKKLRESGLHTAEAVAYAPRKDLLEIKGISEAKADKLLNEAARLVPMGFVTAADFHMRRSELICLTTGSKNLDTLLGGGVETGSITELFGEFRTGKSQLCHTLAVTCQIPLDIGGGEGKCLYIDTEGTFRPVRLVSIAQRFGLDPDDALNNVAYARAYNADHQLRLLDAAAQMMSESRFSLIVVDSVMALYRTDFSGRGELSARQMHLAKFMRALQRLADQFGVAVVVTNQVVAQVDGGMAFNPDPKKPIGGNIMAHSSTTRLGFKKGKGCQRLCKVVDSPCLPEAECVFAIYEDGVGDPREEDE
B2: Rad51-K191R (natural protein, S. cerevisiae, UniProt P25454 1-400, looked up)
chain: B1 chain with K191R
B3: Hed1-GFP (natural protein, S. cerevisiae, UniProt Q03937 1-162, looked up)
chain: MQQRSNRRSCSYIPLGVHNNAEKSLCTEVAPARKNKRSITTSPIVNINVVERRLFNLELEKQQLRAKNLSENTGGGSPNGGAYLDAKKGVREQDQYQGGPSKELDRLQPPPSMKKSPPRKKKSLKDLIYETNKTFYQVDSNKVKYKVGLSKKQLLPSKTVDN

Changes are numbered by the printed parent chain. In names and notes the source's numbering stands.

Assay [1] deals with T1, GFP-Rad55-Rad57 complex (His6-GFP-Rad55 …). The assay can be described thus: single-molecule ssDNA curtain.
The assay “Rad51” deals with B1. The assay can be described thus: single-molecule ssDNA curtain.

Molecule B1 returned a koff in assay [1] of 0.00758 s⁻¹.

As for B2, the koff in assay [1] stood at 0.0058 s⁻¹.

As to B3, in the assay with Rad51, the binding result is “binds”.

One may read the koff as a measure of how fast the partners let go of each other. A lower koff goes with a long-lived complex.

For the origin of these results see publication PMC8262405 (Molecular cell, 2021).
